Data on 5 molecules can be found in paper PMC8854993, “Acetylation at Lysine 86 of Escherichia coli HUβ Modulates the DNA-Binding Capability of the Protein” (Frontiers in Microbiology, 2021).

First the molecules themselves.
T1: HUβ (Escherichia coli BL21(DE3), UniProt P0ACF4 1-90)
T1 sequence: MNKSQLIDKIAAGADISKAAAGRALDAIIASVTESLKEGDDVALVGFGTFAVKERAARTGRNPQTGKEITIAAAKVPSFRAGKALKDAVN

B1: 30-bp duplex with 2-nt gap (dsDNA)
DNA 1: CCAACTTCCCTAACCCAGCTGCGATCCGTA
DNA 2: TACGGATCGCAGC
DNA 3: GGTTAGGGAAGTTGG
modifications: 2-nt gap in bottom strand
B2: Escherichia coli HUβ (natural protein, E. coli, UniProt P0ACF4 1-90, looked up)
chain: T1 sequence
notes: hupB amplified from chromosomal DNA of E. coli BL21(DE3) with primers from the start codon to the last codon, followed by an XhoI site and His6; The reverse primer carries CTCGAG (XhoI) between hupB and the His codons, so Leu-Glu probably stands before His6; theoretical mass printed 10,290.7 Da; No tag cleavage is described; also called HUβ2 (homodimer); hupB-His6; source: E. coli BL21-AI, …
B3: Escherichia coli HUβ acetylated at Lys67 (natural protein, E. coli, UniProt P0ACF4 1-90, looked up)
chain: T1 sequence
modifications: acetyl-lysine at 67
notes: from pBAD hupB(K67TAG)-His6, amber codon at Lys67 read as acetyl lysine; Same construct as m2 but with acetyl-lysine at 67; theoretical mass printed 10,332.7 Da; also called HUβ(K67ac); HUβ(K67ac)2 (homodimer)
B4: Escherichia coli HUβ acetylated at Lys86 (natural protein, E. coli, UniProt P0ACF4 1-90, looked up)
chain: T1 sequence
modifications: acetyl-lysine at 86
notes: from pBAD hupB(K86TAG)-His6, amber codon at Lys86 read as acetyl lysine; Same construct as m2 but with acetyl-lysine at 86; theoretical mass printed 10,332.7 Da; also called HUβ(K86ac); HUβ(K86ac)2 (homodimer)
B5: Escherichia coli HUα (natural protein, E. coli, UniProt P0ACF0 1-90, looked up)
chain: MNKTQLIDVIAEKAELSKTQAKAALESTLAAITESLKEGDAVQLVGFGTFKVNHRAERTGRNPQTGKEIKIAAANVPAFVSGKALKDAVK
notes: hupA amplified from chromosomal DNA of E. coli BL21(DE3) with primers from the start codon to the last codon, followed by His6; No tag cleavage is described; the printed mass (10,357.5 Da observed, 10,357.8 Da calculated) appears to fit the whole protein with His6; also called HUα2 (homodimer); hupA-His6; source: E. coli BL21-AI, purified (Ni-NTA, cation exchange RESOURCE S)

For one data set, the target named is T1, HUβ. As to the kind of experiment: EMSA; homodimer; 30 mM Tris pH 7.5, 100 mM NaCl, 0.02% Tween20, 0.5 mg/ml BSA; 30-bp DNA 1 µM, 18°C 10 min, 10% PAGE in TBE; long DNA 250 ng in 15 µL, 37°C 1 h, 0.5% agarose in. The conditions noted are these: protein: recombinant; tags: C-terminal 6xHis; chain copies: 2; three strands; 2-nt gap in bottom strand between S16 and S17; blunt outer ends.

The data set “Escherichia coli HUα” deals with B5. As to the kind of experiment: SEC; analytical SEC, Agilent Bio SEC-3 column in PBS (10 mM NaPO pH 7.4, 154 mM NaCl), 0.6 mg/mL protein, 20 uL injected, 0.35 mL/min, detection at 214 nm, molecular weight estimated from a standard curve; heterodimers made by mixing purified homodimers 1:1 on ice for 5 min. Conditions: both partners purified.
Data set [1] deals with the molecule itself. The data set is described as above.

Consider B1, for which the binding result with HUβ was “binds”.
Turning to B2, in the data set with Escherichia coli HUα, the binding result is given as “binds”. Besides, in data set [1], the “stoichiometry N” value is 2.
On the same counts, the results for B3 are “binds” and 2.
In the case of B4, the binding result with Escherichia coli HUα is on record as “binds”. The “stoichiometry N” value in data set [1] is 2.
As to B5, in data set [1], the “stoichiometry N” value is 2.

By stoichiometry N is commonly meant a count of units in the complex or per binding partner.
